± gives the uncertainty stated by the source.

The data set is described as follows: amyloid nucleation score (Sup35N fusion, yeast selection) (log enrichment); library NNK3; higher = more nucleation; inactive = no reads after selection. The method in brief: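 The nucleation score is a DiMSum log enrichment of output over input reads, centred on the mode score of non-aggregating sequences. Sequences under 100 input reads were excluded, and reads came from Illumina sequencing of plasmid inserts. Psi-negative yeast expressing Sup35N fused to peptides of 20 random codons were induced with 100 μM copper sulfate for 24 hours and grown 7 days at 30°C on medium lacking adenine and uracil. Random libraries had three technical output replicates.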
With WWSYQGRLVGCGYMRTDNAP, the amyloid nucleation score entry was “inactive”. For WYAKCCKV the value was “inactive”; for WYALYSIWVKHTHLCERTVE, “inactive”; for WYPGMCFESVDTMDRHLHND, “inactive”. Take WYRLRYSQST: the amyloid nucleation score entry is “inactive”. In the case of WYSYPNFG, the amyloid nucleation score entry was “inactive”. On to YAALILGVVQCAGLILFYVI, for which the amyloid nucleation score entry is “inactive”. For YACMCLCELSASYKLDTMC the value was “inactive”. For YAFISDYQYGILFYIKWYFG the value was “inactive”; for YAGFTQNDNVKLYTGNPFHM, “inactive”.

For YAKFCVSASYGVCQKLHGQF, the amyloid nucleation score is 0.331 ± 0.37. In the case of YASYGSKGGITTLRRIISGS, the amyloid nucleation score entry was “inactive”. For YCDSCLNDFLVWYF the value was “inactive”. For YCDSVWNQNSTYHISL the value was “inactive”; for YCETSLLCCCSIPWYLNCIE, “inactive”; for YCFVPRIMYMVCQYCVLTND, “inactive”. In the case of YCGNLYRDFLGQQPF it was “inactive”; in that of YCVWFPSVCFIRRYVSIRLI, “inactive”; in that of YCVWLVSKTISWFQTVFI, “inactive”. YDCVIYSVAECLYVTSSFIE: the amyloid nucleation score turned out to be 0.253 ± 0.18. In the case of YDFYTIVNIRTLHPRLIFFM it was -0.195 ± 0.9; in that of YDGCDS, “inactive”. In the case of YDGVNKLRSVCCVESSDFGL it was “inactive”; in that of YDIMVVWWFFVCSRSV, “inactive”. Turning to YDMTRHLYVSSPEIVKPY, the amyloid nucleation score entry was “inactive”. Substance YDRAKSQRIRAQPESTSSVL registered an amyloid nucleation score of 0.593 ± 0.19. Consider YDYYFFNSFNISDIMR, for which the amyloid nucleation score entry was “inactive”. Turning to YEDAAILDVCDPQIELLLHQ, the amyloid nucleation score entry is “inactive”. As to YEKYDTKVWNCG, the amyloid nucleation score result was “inactive”. Take YELGIHWTYCWL: the amyloid nucleation score is 2.39 ± 0.064. In the case of YEMMCQYVYECWYIIDARRM it was 0.06 ± 0.23; in that of YFCFVLFYLN, 2.04 ± 0.07. Regarding YFDCNFVW, the amyloid nucleation score was 0.997 ± 0.14. Substance YFEVDNLRRIQRRLICLGPE yielded an amyloid nucleation score of 0.891 ± 0.27.

Consider YFFIPVKW, for which the amyloid nucleation score entry is “inactive”. YFFSVAISKVYDFSVKSRCT came in with an amyloid nucleation score of 1.98 ± 0.086. For YFGNSGWDHGWPVVHKMSFS, the amyloid nucleation score result was “inactive”.

For YFGVTLLMYERARWASFYRF, the amyloid nucleation score result was “inactive”. Consider YFHGFLFYSE, for which the amyloid nucleation score result is “inactive”. With YFIVSWFFQNCFR, the amyloid nucleation score was 1.19 ± 0.12.

YFLFNTYWDRALQSKTVGGL: the amyloid nucleation score entry was “inactive”. In the case of YFLGECNPRCYLLRGLAAWN, the amyloid nucleation score result is “inactive”. As to YFLLYTVNGGTASTLNYV, the amyloid nucleation score is 2.15 ± 0.093.

In the case of YFLQTEAEVSFEQEVVAISL, the amyloid nucleation score result was “inactive”.

For the substance YFMVEVMLILMSDGAFYTFC, the amyloid nucleation score result was “inactive”. With YFNGATS, the amyloid nucleation score result is “inactive”. Consider YFNRNQYVDDTCG, for which the amyloid nucleation score entry was “inactive”. For YFPSYYVADFSSHLLMGQVY the value was “inactive”; for YFQGWSMVCSDVSTGKSVVM, “inactive”; for YFRFFTFSNCRDYKDTYPTL, 0.972 ± 0.23. Turning to YFSAIFFDSLYMLYGSNRAV, the amyloid nucleation score was determined as 0.356 ± 0.24. With YFSSLNSNFWGVVRRRLLYN, the amyloid nucleation score result is “inactive”. As for YFSYLCGVRYLYCFKLCSSM, the amyloid nucleation score entry is “inactive”. In the case of YFTQNSSYVGV it was “inactive”. As to YFYIPGH, the amyloid nucleation score entry is “inactive”.

With YGAMSAGDMETY, the amyloid nucleation score entry is “inactive”. As for YGCGIQGLVQWTCDTGRMHC, the amyloid nucleation score result was “inactive”. As to YGCRRDIFKYSMTLLMDAID, the amyloid nucleation score result is “inactive”.

Turning to YGEAAYRDRS, the amyloid nucleation score result was “inactive”.

Consider YGFRMRRLVARLESRQWFWG, for which the amyloid nucleation score result was “inactive”. YGFRVCYPQASMSTVVEHSR: the amyloid nucleation score entry is “inactive”.

YGGDSNRIRVRLFKMKTLNL: the amyloid nucleation score result was “inactive”. The substance YGKFMLLPVAGGIFVFENML had an amyloid nucleation score of 1.25 ± 0.14. YGNEFEDNPSMATTTDQRAR registered an amyloid nucleation score of 0.468 ± 0.22. Consider YGSIV, for which the amyloid nucleation score entry is “inactive”. In the case of YGVLS it was “inactive”; in that of YHAYRTGE, “inactive”. On to YHDFLYIEGWQMSETNSFEC, for which the amyloid nucleation score result was “inactive”. Substance YHLSQAYDMKVYILNRCGLF displayed an amyloid nucleation score of 0.506 ± 0.38.

With YHLYDETMCMP, the amyloid nucleation score result is “inactive”.

With YHPYRWLHESRL, the amyloid nucleation score result is “inactive”. For YHSLYTAPDEGLFYRNRRKF, the amyloid nucleation score result is “inactive”. In the case of YHSSVCTDVIYGTTYWGCAV it was “inactive”. In the case of YHWSS it was “inactive”; in that of YICLYHLLVWWDRQFRGFNS, “inactive”; in that of YICNY, “inactive”. On to YIFVSRIIGVPFRLVQVTSG, for which the amyloid nucleation score entry was “inactive”.

In turn, YIGVYYLN yielded an amyloid nucleation score of 0.431 ± 0.28. For YIIFNFIDFYKPGWGFQWTV the value was 2.82 ± 0.052; for YIMAFCCLLPNPPVSVLMAH, “inactive”. In the case of YIRELARPTLSRIKRLAPIS it was “inactive”; in that of YIRLCSVFGTTWYARLDG, 0.459 ± 0.27. In the case of YISNMLTLSPAKVSHKSWVI it was 0.186 ± 0.29; in that of YISYLDMDCEFVLS, “inactive”; in that of YITDYNQVSAHTQNKKTMGY, “inactive”. On to YIVLKYSEMRTRVTDYRTTG, for which the amyloid nucleation score entry is “inactive”. With YIWTMWSSSLCVLMGAKGAA, the amyloid nucleation score result was “inactive”. Consider YKEMVHRSG, for which the amyloid nucleation score entry is “inactive”. Take YKEMVRRNLSRANKFDCGSM: the amyloid nucleation score result is “inactive”. For the substance YKGYSVCIVLPFG, the amyloid nucleation score is -0.542 ± 0.98.

On to YKLNMLLGYLLMFTLGIHAV, for which the amyloid nucleation score entry is “inactive”. YKSLIVNANYCDLGFLRGWC yielded an amyloid nucleation score of 2.6 ± 0.064.

The substance YKSVYMRF showed an amyloid nucleation score of 0.709 ± 0.18. With YLCTGQAGCAYMPRS, the amyloid nucleation score entry was “inactive”.

Consider YLEKAL, for which the amyloid nucleation score result is “inactive”. In the case of YLFRNLRGRAIFVNKIIGQR it was “inactive”. Regarding YLHVVTWLMNACPGQPRHWL, the amyloid nucleation score entry is “inactive”. Consider YLICTRPILSLASLVS, for which the amyloid nucleation score result is “inactive”.

For YLKMLSVLKWRKNISRFVLP, the amyloid nucleation score result is “inactive”. For YLKVADVSLHLSHDLTYLLM the value was “inactive”; for YLLCGYRGATFRKHEVWGEG, -0.059 ± 0.78; for YLLDKYEVAFIPSHLVLHSP, “inactive”. For YLLRHILSIWKGWDWGTSQ, the amyloid nucleation score result was “inactive”.

Regarding YLLSIEYVNLAIVDNSWRMF, the amyloid nucleation score amounted to 1.04 ± 0.094. On to YLMFGTTNMAVLIRFEHH, for which the amyloid nucleation score result is “inactive”. In the case of YLMIIDRPKSHNLPYLGMLH it was “inactive”. With YLPRSW, the amyloid nucleation score entry was “inactive”. Turning to YLQLTRQTSYVIIAL, the amyloid nucleation score entry was “inactive”.

The substance YLSINHRTTSFYWYDFAGFP had an amyloid nucleation score of 0.537 ± 0.17. In the case of YLSVIKNTIPEMWIIVGVCR it was “inactive”; in that of YLSVVRGPMNRCSYYKVMTE, “inactive”; in that of YLTCDKTNVNGFMI, “inactive”. In the case of YLTGTMSVEFRPHGMPNLSK it was 1.82 ± 0.08. YLTSFRFYVFTFR: the amyloid nucleation score result is “inactive”. YLVMTSLIC: the amyloid nucleation score result is “inactive”.

The substance YLVRLVSDITRKNR displayed an amyloid nucleation score of 2.37 ± 0.071. In the case of YLWRQYYALFCYCFWNLKGP, the amyloid nucleation score entry was “inactive”.

Consider YLYMG, for which the amyloid nucleation score entry is “inactive”. Take YLYNRSMRVPLMSRKLFGGD: the amyloid nucleation score result is “inactive”. YLYRFLPVQTRPLMHATSYI: the amyloid nucleation score result is “inactive”. As to YMGCMTVW, the amyloid nucleation score result was “inactive”. As to YMGEVCCIVVVTDHLCTVVI, the amyloid nucleation score entry is “inactive”. In the case of YMLIKYGSL, the amyloid nucleation score came out at 0.449 ± 0.35. For the substance YMRDVDFIRSEGG, the amyloid nucleation score entry is “inactive”. Consider YMYQLKYYASEMNWVYSYSI, for which the amyloid nucleation score result is “inactive”.

As to YNCFDDNTYPYSANGSRNSL, the amyloid nucleation score result was “inactive”.

With YNDNSNCSARMGLI, the amyloid nucleation score entry was “inactive”.

As to YNFGLVNV, the amyloid nucleation score entry is “inactive”. Substance YNRFLVVSGMGMSFYGKQYM registered an amyloid nucleation score of 1.51 ± 0.074.

For the substance YNRLIMSSELSMIGTTCISY, the amyloid nucleation score entry is “inactive”. Turning to YNTRGQSSFSPCEIMWLVHI, the amyloid nucleation score entry is “inactive”. In the case of YPDNIFFCQSN, the amyloid nucleation score entry was “inactive”.

Source of the values: the supplement of paper PMC12042874.
